Patent publication US20220251236A1 (Boehringer Ingelheim, published 2022)

How the values were obtained:
[1] = target: T1, trypsin inhibitor from glycine max soybean (Glycine max (soybean)); experiment: SPR (Biacore T200), trypsin inhibitor on CM5 chip, sample at 1 µM
T1 construct: also called Tryp
Excerpt: To prepare the surface for the non-specific binding experiment, chicken egg white lysozyme and trypsin inhibitor from glycine max soybean were coupled manually to a series S CM5 chip with the surface density of 3000-5000 RU using the amine coupling kit according to the manufacture instructions.

[2] = target: T2, Human DLL3-His (human, UniProt Q9NYJ7 27-492); experiment: SPR (ProteOn XPR36), bispecific captured on protein A/G, hu DLL3 as analyte, Example 4B
T2 construct: also called huDLL3-His; hu DLL3
T2 sequence: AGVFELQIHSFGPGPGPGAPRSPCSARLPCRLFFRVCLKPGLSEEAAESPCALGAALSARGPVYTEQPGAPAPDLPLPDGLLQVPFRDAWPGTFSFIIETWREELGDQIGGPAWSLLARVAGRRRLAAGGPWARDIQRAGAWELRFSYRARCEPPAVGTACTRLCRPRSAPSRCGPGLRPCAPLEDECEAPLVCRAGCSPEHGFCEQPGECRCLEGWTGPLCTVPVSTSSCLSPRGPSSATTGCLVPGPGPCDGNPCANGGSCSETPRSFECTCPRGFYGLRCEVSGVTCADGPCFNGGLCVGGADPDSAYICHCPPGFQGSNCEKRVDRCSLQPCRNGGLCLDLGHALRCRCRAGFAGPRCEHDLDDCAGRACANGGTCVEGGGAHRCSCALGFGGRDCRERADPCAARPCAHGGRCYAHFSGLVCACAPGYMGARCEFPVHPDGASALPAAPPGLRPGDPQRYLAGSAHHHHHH
In short: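 Bispecific constructs captured on protein A/G for 200 s at 30 μl/min, baseline stabilized with PBS-T-EDTA. Human DLL3 analyte injected 300 s at 30 μl/min; dissociation followed for 1800 s.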

[3] = target: T3, human DLL3 (endogenous, on SCLC cell lines NCI-H82 and SHP77 and in SCLC tissue) (human, UniProt Q9NYJ7 27-618); experiment: flow cytometry titration on NCI-H82 cells, PE anti-human secondary, x-fold over background
T3 construct: whole, on cells; also called SCLC cell lines expressing DLL3
T3 sequence (looked up): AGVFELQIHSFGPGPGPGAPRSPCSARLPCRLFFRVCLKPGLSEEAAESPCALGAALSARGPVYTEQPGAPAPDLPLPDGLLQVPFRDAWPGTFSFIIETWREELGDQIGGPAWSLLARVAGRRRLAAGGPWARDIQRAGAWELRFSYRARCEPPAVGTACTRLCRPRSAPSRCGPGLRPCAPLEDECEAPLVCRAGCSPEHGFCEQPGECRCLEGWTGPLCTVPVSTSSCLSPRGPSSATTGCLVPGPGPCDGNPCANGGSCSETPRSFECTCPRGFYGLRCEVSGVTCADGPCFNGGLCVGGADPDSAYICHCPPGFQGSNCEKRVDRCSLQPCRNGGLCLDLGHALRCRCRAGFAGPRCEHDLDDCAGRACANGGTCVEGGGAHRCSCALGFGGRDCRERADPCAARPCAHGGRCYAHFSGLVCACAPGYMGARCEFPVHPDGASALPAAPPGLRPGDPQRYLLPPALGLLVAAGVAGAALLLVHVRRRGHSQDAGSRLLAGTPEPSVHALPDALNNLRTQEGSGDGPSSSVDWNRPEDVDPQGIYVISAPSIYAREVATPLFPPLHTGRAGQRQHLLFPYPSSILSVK
Excerpt: Cells (T cells or human SCLC cells) were stained with increasing concentrations of two-step purified DLL3/CD3 binding proteins with increasing concentrations in FACS buffer (PBS/0.5% BSA/0.05% sodium azide). Bound molecules were detected with PE-conjugated anti-human secondary antibody (Sigma-Aldrich, #P8047).

T1 sequence (P01070 25-205): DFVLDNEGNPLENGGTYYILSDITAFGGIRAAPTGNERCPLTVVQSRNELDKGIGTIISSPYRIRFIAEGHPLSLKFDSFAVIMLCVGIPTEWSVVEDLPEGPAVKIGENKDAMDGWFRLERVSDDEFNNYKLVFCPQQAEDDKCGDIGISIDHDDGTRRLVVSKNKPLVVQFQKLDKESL

B1: DLL3#17/CD3#1 (bispecific antibody, human IgG1, kappa, lambda, L234A L235A)
chain 1: DIQMTQSPASLAASVGETVTITCRASENIYYSLAWYQQKQGKSPQLLIYNTNSLEDGVPSRFSGSGSGTQYSMKINSMQPEDTATYFCKQAYDFPLTFGAGTKLELKRTVAAPSVFIFPPSDEQLKSGTASVVCLLNNFYPREAKVQWKVDNALQSGNSQESVTEQDSKDSTYSLSSTLTLSKADYEKHKVYACEVTHQGLSSPVTKSFNRGECGGGGSEGKSSGSGSESKSTEGKSSGSGSESKSTGGGGSQIQLQQSGPEVVKPGASVKISCKASGYTFISYYIHWVKQRPGQGLEWIGWIYPGDGSTNNNEKFKGKTTLTADKSSSTAYMLLSSLTSEDSAVYFCARGEGNAMDDWGQGTSVTVSSASTKGPSVFPLAPSSKSTSGGTAALGCLVKDYFPEPVTVSWNSGALTSGVHTFPAVLQSSGLYSLSSVVTVPSSSLGTQTYICNVNHKPSNTKVDKRVEPKSCDKTHTCPPCPAPEAAGGPSVFLFPPKPKDTLMISRTPEVTCVVVDVSHEDPEVKFNWYVDGVEVHNAKTKPREEQYNSTYRVVSVLTVLHQDWLNGKEYKCKVSNKALPAPIEKTISKAKGQPREPQVYTLPPSREEMTKNQVSLWCLVKGFYPSDIAVEWESNGQPENNYKTTPPVLDSDGSFFLYSKLTVDKSRWQQGNVFSCSVMHEALHNHYTQKSLSLSPG
chain 2: EAVVTQEPSLTVSPGGTVTLTCRSSTGAVTTSNYANWVQEKPGQLPRGLIGGTNKRAPWVPARFSGSLLGGKAALTLSGAQPEDEAEYFCALWYSNLWVFGGGTKLTVLGQPKAAPSVTLFPPSSEELQANKATLVCLISDFYPGAVKVAWKADGSPVNTGVETTTPSKQSNNKYAASSYLSLTPEQWKSHRSYSCQVTHEGSTVEKTVAPAECSGGGGSEGKSSGSGSESKSTEGKSSGSGSESKSTGGGGSEVQLVESGGGLVQPGGSLKLSCAASGFTFNTYAMNWVRQAPGKGLEWVARIRSKYNNYATYYADSVKDRFTISRDDSKNTAYLQMNNLKTEDTAVYYCVRHGNFGNSYVSWFAYWGQGTLVTVSAASTKGPSVFPLAPSSKSTSGGTAALGCLVKDYFPEPVTVSWNSGALTSGVHTFPAVLQSSGLYSLSSVVTVPSSSLGTQTYICNVNHKPSNTKVDKRVEPKSCDKTHTCPPCPAPEAAGGPSVFLFPPKPKDTLMISRTPEVTCVVVDVSHEDPEVKFNWYVDGVEVHNAKTKPREEQYNSTYRVVSVLTVLHQDWLNGKEYKCKVSNKALPAPIEKTISKAKGQPREPQVYTLPPSREEMTKNQVSLSCAVKGFYPSDIAVEWESNGQPENNYKTTPPVLDSDGSFFLVSKLTVDKSRWQQGNVFSCSVMHEALHNRFTQKSLSLSPG
notes: Heterodimer of one DLL3 chain and one CD3 chain (scFab-Fc, knob-in-hole)
- Non-specific binding (RU) [1]: 8 RU
- Kd [2]: < 0.02 nM
- EC50 (read off the curve) [3]: ~1 nM

B2: DLL3#13/CD3#1 (bispecific antibody, human IgG1, kappa, lambda, L234A L235A)
chain 1: DVLMTQTPLSLPVSLGDQAAISCRSSQSIVHSNGNTYLEWYLQKPGQSPKVLIYKVSNRFSGVPDRFSGSGSGTDFTLKISRVEAEDLGVYYCFQGSHVPYTFGGGTKLEIKRTVAAPSVFIFPPSDEQLKSGTASVVCLLNNFYPREAKVQWKVDNALQSGNSQESVTEQDSKDSTYSLSSTLTLSKADYEKHKVYACEVTHQGLSSPVTKSFNRGECGGGGSEGKSSGSGSESKSTEGKSSGSGSESKSTGGGGSQIQLVQSGPELKKPGETVKISCKASGYTFTNYGVTWVKQAPGKGLKWMGWINTYSGAPTYADDFNGRFALSLETSASTAYLQINNLKNEDTATYFCARLDDYDLYYFDYWGQGTALTVSSASTKGPSVFPLAPSSKSTSGGTAALGCLVKDYFPEPVTVSWNSGALTSGVHTFPAVLQSSGLYSLSSVVTVPSSSLGTQTYICNVNHKPSNTKVDKRVEPKSCDKTHTCPPCPAPEAAGGPSVFLFPPKPKDTLMISRTPEVTCVVVDVSHEDPEVKFNWYVDGVEVHNAKTKPREEQYNSTYRVVSVLTVLHQDWLNGKEYKCKVSNKALPAPIEKTISKAKGQPREPQVYTLPPSREEMTKNQVSLWCLVKGFYPSDIAVEWESNGQPENNYKTTPPVLDSDGSFFLYSKLTVDKSRWQQGNVFSCSVMHEALHNHYTQKSLSLSPG
chain 2: EAVVTQEPSLTVSPGGTVTLTCRSSTGAVTTSNYANWVQEKPGQLPRGLIGGTNKRAPWVPARFSGSLLGGKAALTLSGAQPEDEAEYFCALWYSNLWVFGGGTKLTVLGQPKAAPSVTLFPPSSEELQANKATLVCLISDFYPGAVKVAWKADGSPVNTGVETTTPSKQSNNKYAASSYLSLTPEQWKSHRSYSCQVTHEGSTVEKTVAPAECSGGGGSEGKSSGSGSESKSTEGKSSGSGSESKSTGGGGSEVQLVESGGGLVQPGGSLKLSCAASGFTFNTYAMNWVRQAPGKGLEWVARIRSKYNNYATYYADSVKDRFTISRDDSKNTAYLQMNNLKTEDTAVYYCVRHGNFGNSYVSWFAYWGQGTLVTVSAASTKGPSVFPLAPSSKSTSGGTAALGCLVKDYFPEPVTVSWNSGALTSGVHTFPAVLQSSGLYSLSSVVTVPSSSLGTQTYICNVNHKPSNTKVDKRVEPKSCDKTHTCPPCPAPEAAGGPSVFLFPPKPKDTLMISRTPEVTCVVVDVSHEDPEVKFNWYVDGVEVHNAKTKPREEQYNSTYRVVSVLTVLHQDWLNGKEYKCKVSNKALPAPIEKTISKAKGQPREPQVYTLPPSREEMTKNQVSLSCAVKGFYPSDIAVEWESNGQPENNYKTTPPVLDSDGSFFLVSKLTVDKSRWQQGNVFSCSVMHEALHNRFTQKSLSLSPG
notes: as for B1
- Non-specific binding (RU) [1]: 3 RU
- Kd [2]: 0.023 nM
- EC50 (read off the curve) [3]: ~1 nM

B3: DLL3#18/CD3#1 (bispecific antibody, human IgG1, kappa, lambda, L234A L235A)
chain 1: DIQMTQSPASLAASVGETVTITCRASENIYYSLAWYQQKQGKSPQLLIYNANSLEDGVPSRFSGSGSGTQYSMKINNMQPEDTATYFCKQAYDVPLTFGAGTKLELKRTVAAPSVFIFPPSDEQLKSGTASVVCLLNNFYPREAKVQWKVDNALQSGNSQESVTEQDSKDSTYSLSSTLTLSKADYEKHKVYACEVTHQGLSSPVTKSFNRGECGGGGSEGKSSGSGSESKSTEGKSSGSGSESKSTGGGGSQVQLQQSGPDLVKPGASVKMSCEASGYTFTAYFIHWVKQKPGQGLEWIGYIDPFNDDTNYNVKFKGKATLTSDTSSSIAYMELSSLTSEDSSFYYCARGTSATLDYWGHGTTLTVSSASTKGPSVFPLAPSSKSTSGGTAALGCLVKDYFPEPVTVSWNSGALTSGVHTFPAVLQSSGLYSLSSVVTVPSSSLGTQTYICNVNHKPSNTKVDKRVEPKSCDKTHTCPPCPAPEAAGGPSVFLFPPKPKDTLMISRTPEVTCVVVDVSHEDPEVKFNWYVDGVEVHNAKTKPREEQYNSTYRVVSVLTVLHQDWLNGKEYKCKVSNKALPAPIEKTISKAKGQPREPQVYTLPPSREEMTKNQVSLWCLVKGFYPSDIAVEWESNGQPENNYKTTPPVLDSDGSFFLYSKLTVDKSRWQQGNVFSCSVMHEALHNHYTQKSLSLSPG
chain 2: EAVVTQEPSLTVSPGGTVTLTCRSSTGAVTTSNYANWVQEKPGQLPRGLIGGTNKRAPWVPARFSGSLLGGKAALTLSGAQPEDEAEYFCALWYSNLWVFGGGTKLTVLGQPKAAPSVTLFPPSSEELQANKATLVCLISDFYPGAVKVAWKADGSPVNTGVETTTPSKQSNNKYAASSYLSLTPEQWKSHRSYSCQVTHEGSTVEKTVAPAECSGGGGSEGKSSGSGSESKSTEGKSSGSGSESKSTGGGGSEVQLVESGGGLVQPGGSLKLSCAASGFTFNTYAMNWVRQAPGKGLEWVARIRSKYNNYATYYADSVKDRFTISRDDSKNTAYLQMNNLKTEDTAVYYCVRHGNFGNSYVSWFAYWGQGTLVTVSAASTKGPSVFPLAPSSKSTSGGTAALGCLVKDYFPEPVTVSWNSGALTSGVHTFPAVLQSSGLYSLSSVVTVPSSSLGTQTYICNVNHKPSNTKVDKRVEPKSCDKTHTCPPCPAPEAAGGPSVFLFPPKPKDTLMISRTPEVTCVVVDVSHEDPEVKFNWYVDGVEVHNAKTKPREEQYNSTYRVVSVLTVLHQDWLNGKEYKCKVSNKALPAPIEKTISKAKGQPREPQVYTLPPSREEMTKNQVSLSCAVKGFYPSDIAVEWESNGQPENNYKTTPPVLDSDGSFFLVSKLTVDKSRWQQGNVFSCSVMHEALHNRFTQKSLSLSPG
notes: as for B1
- Non-specific binding (RU) [1]: 81 RU
- Kd [2]: < 0.02 nM
- EC50 (read off the curve) [3]: ~1 nM
